One substance from article PMC6111841 can be followed below.

In test [1] the target is HelD (Bacillus subtilis) (UniProt O32215). The test is described as follows: SEC; Superdex 200 Increase 10/300 GL, Buffer A (20 mM HEPES pH 7.5, 150 mM NaCl), 500 uL purified protein, 0.5 mL/min, 4 °C.
For test [2] the target is unchanged. In words: AUC; sedimentation velocity, HelD 5 uM in Buffer A (20 mM HEPES pH 7.5, 150 mM NaCl), 40,000 rpm, 4 °C, c(s) model in SEDFIT.

Values joined by “and” are separate entries in the source; they are usually repeats but may differ in a detail not shown here. Equal values may be shown once.

Chain of HelD (O32215 whole entry): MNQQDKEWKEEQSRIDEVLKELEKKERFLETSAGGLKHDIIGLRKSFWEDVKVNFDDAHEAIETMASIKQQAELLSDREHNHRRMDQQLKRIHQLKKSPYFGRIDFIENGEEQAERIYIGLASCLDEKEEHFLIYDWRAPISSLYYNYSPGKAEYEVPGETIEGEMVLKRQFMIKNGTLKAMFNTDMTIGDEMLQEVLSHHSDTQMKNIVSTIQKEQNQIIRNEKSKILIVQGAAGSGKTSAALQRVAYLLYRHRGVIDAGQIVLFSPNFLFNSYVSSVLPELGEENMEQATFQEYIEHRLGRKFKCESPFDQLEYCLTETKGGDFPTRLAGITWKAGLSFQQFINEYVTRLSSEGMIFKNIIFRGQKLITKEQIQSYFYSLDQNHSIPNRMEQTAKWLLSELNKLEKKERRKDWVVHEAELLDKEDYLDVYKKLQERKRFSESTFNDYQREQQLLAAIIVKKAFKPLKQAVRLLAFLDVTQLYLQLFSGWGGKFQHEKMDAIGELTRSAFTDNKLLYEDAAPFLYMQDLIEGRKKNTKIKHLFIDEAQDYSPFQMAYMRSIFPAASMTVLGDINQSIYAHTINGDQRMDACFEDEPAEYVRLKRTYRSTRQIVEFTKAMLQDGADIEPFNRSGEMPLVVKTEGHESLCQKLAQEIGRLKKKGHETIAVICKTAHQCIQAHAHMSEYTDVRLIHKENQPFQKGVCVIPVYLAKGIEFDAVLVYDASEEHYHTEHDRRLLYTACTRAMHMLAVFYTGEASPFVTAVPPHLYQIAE

Take “HelD (from UniProt O32215 1-774) (natural protein)”: in the test with HelD (Bacillus subtilis) [1], the stoichiometry N is 2 and 3. In the test with HelD (Bacillus subtilis) [2], this substance yielded a population of higher order oligomers of 20%.
